Experimental data reported in article PMC8053116.

Target: multi-tRNA synthetase complex without ArgRS and GlnRS (human (endogenous in HEK 293T)) (UniProt P56192)
Assay: SEC; lysate of wildtype 293T cells (20 mM Tris-HCl pH 7.5, 1 mM EDTA, 150 mM NaCl, 0.1% IGEPAL CA-630) on Superdex 200 in Dulbecco's PBS; 1 ml fractions analysed by western blot; intact MSC in fractions 10-12

UniProt P56192, sequence (P56192 whole entry, looked up, one chain of several): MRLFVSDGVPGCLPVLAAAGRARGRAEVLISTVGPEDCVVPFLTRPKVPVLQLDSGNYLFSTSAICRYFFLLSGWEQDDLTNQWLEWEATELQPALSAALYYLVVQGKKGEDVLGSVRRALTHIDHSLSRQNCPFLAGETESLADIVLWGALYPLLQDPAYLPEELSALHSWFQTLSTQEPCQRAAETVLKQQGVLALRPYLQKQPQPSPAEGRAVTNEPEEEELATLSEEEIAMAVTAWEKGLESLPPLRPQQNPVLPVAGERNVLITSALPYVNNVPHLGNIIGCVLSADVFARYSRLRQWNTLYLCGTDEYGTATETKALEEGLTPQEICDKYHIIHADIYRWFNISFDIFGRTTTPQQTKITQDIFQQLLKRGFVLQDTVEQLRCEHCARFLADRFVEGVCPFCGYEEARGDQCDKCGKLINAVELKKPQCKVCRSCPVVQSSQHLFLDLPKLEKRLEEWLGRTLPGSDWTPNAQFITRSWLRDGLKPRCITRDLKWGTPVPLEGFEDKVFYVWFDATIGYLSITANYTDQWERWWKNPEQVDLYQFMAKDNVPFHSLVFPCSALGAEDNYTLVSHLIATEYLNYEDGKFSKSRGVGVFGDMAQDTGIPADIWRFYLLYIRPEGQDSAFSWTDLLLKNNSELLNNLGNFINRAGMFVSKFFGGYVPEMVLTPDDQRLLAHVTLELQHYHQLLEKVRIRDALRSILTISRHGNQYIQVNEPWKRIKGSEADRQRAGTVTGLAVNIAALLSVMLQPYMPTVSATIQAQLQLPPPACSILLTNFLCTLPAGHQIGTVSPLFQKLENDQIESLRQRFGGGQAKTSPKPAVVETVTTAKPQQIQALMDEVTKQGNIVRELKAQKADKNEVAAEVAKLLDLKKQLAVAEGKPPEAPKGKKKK

B1: arginyl-tRNA synthetase, full-length (enzyme)
chain: MDVLVSECSARLLQQEEEIKSLTAEIDRLKNCGCLGASPNLEQLQEENLKLKYRLNILRKSLQAERNKPTKNMINIISRLQEVFGHAIKAAYPDLENPPLLVTPSQQAKFGDYQCNSAMGISQMLKTKEQKVNPREIAENITKHLPDNECIEKVEIAGPGFINVHLRKDFVSEQLTSLLVNGVQLPALGENKKVIVDFSSPNIAKEMHVGHLRSTIIGESISRLFEFAGYDVLRLNHVGDWGTQFGMLIAHLQDKFPDYLTVSPPIGDLQVFYKESKKRFDTEEEFKKRAYQCVVLLQGKNPDITKAWKLICDVSRQELNKIYDALDVSLIERGESFYQDRMNDIVKEFEDRGFVQVDDGRKIVFVPGCSIPLTIVKSDGGYTYDTSDLAAIKQRLFEEKADMIIYVVDNGQSVHFQTIFAAAQMIGWYDPKVTRVFHAGFGVVLGEDKKKFKTRSGETVRLMDLLGEGLKRSMDKLKEKERDKVLTAEELNAAQTSVAYGCIKYADLSHNRLNDYIFSFDKMLDDRGNTAAYLLYAFTRIRSIARLANIDEEMLQKAARETKILLDHEKEWKLGRCILRFPEILQKILDDLFLHTLCDYIYELATAFTEFYDSCYCVEKDRQTGKILKVNMWRMLLCEAVAAVMAKGFDILGIKPVQRM
Question: Which percent of ArgRS not bound to the MSC does the source give for B1 here?
Answer: The percent of ArgRS not bound to the MSC was 40%.
